B1: Ras-related protein Rab-6A (Homo sapiens), P20340 (parent)
chain: MSTGGDFGNPLRKFKLVFLGEQSVGKTSLITRFMYDSFDNTYQATIGIDFLSKTMYLEDRTVRLQLWDTAGQERFRSLIPSYIRDSTVAVVVYDITNVNSFQQTTKWIDDVRTERGSDVIIMLVGNKTDLADKRQVSIEEGERKAKELNVMFIETSAKAGYNVKQLFRRVAAALPGMESTQDRSREDMIDIKLEKPQEQPVSEGGCSC
partner: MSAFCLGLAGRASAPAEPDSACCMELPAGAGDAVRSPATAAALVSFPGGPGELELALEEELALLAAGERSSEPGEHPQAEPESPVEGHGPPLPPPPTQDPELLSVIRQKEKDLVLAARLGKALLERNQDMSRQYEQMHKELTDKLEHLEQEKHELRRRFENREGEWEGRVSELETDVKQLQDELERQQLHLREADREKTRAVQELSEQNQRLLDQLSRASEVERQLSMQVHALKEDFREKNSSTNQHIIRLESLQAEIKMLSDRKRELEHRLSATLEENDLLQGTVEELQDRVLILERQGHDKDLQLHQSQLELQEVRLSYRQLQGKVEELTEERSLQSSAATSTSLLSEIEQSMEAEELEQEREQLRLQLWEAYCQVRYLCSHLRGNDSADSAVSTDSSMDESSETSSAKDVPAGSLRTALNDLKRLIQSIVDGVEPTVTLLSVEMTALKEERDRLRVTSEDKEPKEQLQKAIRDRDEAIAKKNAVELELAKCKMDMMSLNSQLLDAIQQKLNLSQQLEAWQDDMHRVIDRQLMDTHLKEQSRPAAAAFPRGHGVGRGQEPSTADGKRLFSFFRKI
B2: BICD family-like cargo adapter 1 (Mus musculus), A0JNT9 (parent)
chain: B1 partner
B3: Ras-related protein Rab-6A (Mus musculus), P35279 (parent)
chain: B1 chain with T3A, S202N
partner: B1 partner
B4: Ras-related protein Rab-6A (Mus musculus), P35279 (parent)
chain: B1 chain with T3A, S202N
B5: Protein bicaudal D homolog 2 (Mus musculus), Q921C5 (parent)
chain: MSAPSEEEEYARLVMEAQPEWLRAEVKRLSHELAETTREKIQAAEYGLAVLEEKHQLKLQFEELEVDYEAIRSEMEQLKEAFGQAHTNHKKVAADGESREESLIQESASKEQYYVRKVLELQTELKQLRNVLTNTQSENERLTSVAQELKEINQNVEIQRGRLRDDIKEYKFREARLLQDYSELEEENISLQKQVSVLRQNQVEFEGLKHEIKRLEEETEYLNSQLEDAIRLKEISERQLEEALETLKTEREQKNNLRKELSHYMSINDSFYTSHLQVSLDGLKFSDDTVTAEPNNDAEALVNGFEHSGLVKSSLDNKTSTPRKDGLAPPSPSLVSDLLSELHISEIQKLKQQLVQMEREKVGLLATLQDTQKQLEQARGTLSEQHEKVNRLTENLSALRRLQAGKERQTSLDNEKDRDSHEDGDYYEVDINGPEILACKYHVAVAEAGELREQLKALRSTHEAREAQHAEEKGRYEAEGQALTEKISLLEKASHQDRELLAHLEKELKKVSDVAGETQGSLNVAQDELVTFSEELANLYHHVCMCNNETPNRVMLDYYREGQGKAGRTSPEGRGRRSPVLLPKGLLATEVGRADGGTGDNSPSPSSSLPSPLSDPRREPMNIYNLIAIIRDQIKHLQAAVDRTTELSRQRIASQELGPAVDKDKEALMEEILKLKSLLSTKREQITTLRTVLKANKQTAEVALANLKSKYENEKAMVTETMMKLRNELKALKEDAATFSSLRAMFATRCDEYITQLDEMQRQLAAAEDEKKTLNSLLRMAIQQKLALTQRLELLELDHEQTRRGRSKAASKAKPASPSL

Positions count from the first letter of the chain named.

The source of these data is IntAct's records for PubMed 20360680.

The variants in the first assay derive from B1. The conditions noted are these: with bicl1_mouse Bicdl1, A0JNT9.
As to T27N, the “effect of a mutation on the interaction” value is “disrupting interaction”.

In the next assay the parent is B2. The conditions noted are these: with rab6a_mouse Rab6a.
Target sequence in this assay (P35279 whole entry): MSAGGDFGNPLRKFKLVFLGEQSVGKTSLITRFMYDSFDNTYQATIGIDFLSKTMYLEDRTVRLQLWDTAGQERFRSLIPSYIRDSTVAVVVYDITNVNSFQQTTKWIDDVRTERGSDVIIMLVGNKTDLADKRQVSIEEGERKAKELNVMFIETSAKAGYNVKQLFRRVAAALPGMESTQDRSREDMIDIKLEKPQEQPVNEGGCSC
Take MSAFCLGLAGRASAPAEPDSACCMELPAGAGDAVRSPATAAALVSFPGGPGELELALEEELALLAAGERSSEPGEHPQAEPESPVEGHGPPLPPPPTQDPELLSVIRQKEKDLVLAARLGKALLERNQDMSRQYEQMHKELTDKLEHLEQEKHELRRRFENREGEWEGRVSELETDVKQLQDELERQQLHLREADREKTRAVQELSEQNQRLLDQLSRASEVERQLSMQVHALKEDFREKNSSTNQHIIRLESLQAEIKMLSDRKRELEHRLSATLEENDLLQGTVEELQDRVLILERQGHDKDLQLHQSQLELQEVRLSYRQLQGKVEELTEERSLQSSAATSTSLLSEIEQSMEAEELEQEREQLRLQLWEAYCQVRYLCSHLRGNDSADSAVSTDSSMDESSETSSAKDVPAGSLRTALNDLKRLIQSIVDGVEPTVTLLSVEMTALKEERDRLRVTSEDKEPKEQLQKAIRDRDEAIAKKNAVELELAKCKMDMMSLNSQLLDAIQQMLNLSQQLEAWQDDMHRVIDRQLMDTHLKEQSRPAAAAFPRGHGVGRGQEPSTADGKRLFSFFRKI [K512M]: the “effect of a mutation on the interaction” value was “disrupting interaction”.

In a further assay the parent is B2. The conditions noted are these: with rab6b_mouse Rab6b.
MSAFCLGLAGRASAPAEPDSACCMELPAGAGDAVRSPATAAALVSFPGGPGELELALEEELALLAAGERSSEPGEHPQAEPESPVEGHGPPLPPPPTQDPELLSVIRQKEKDLVLAARLGKALLERNQDMSRQYEQMHKELTDKLEHLEQEKHELRRRFENREGEWEGRVSELETDVKQLQDELERQQLHLREADREKTRAVQELSEQNQRLLDQLSRASEVERQLSMQVHALKEDFREKNSSTNQHIIRLESLQAEIKMLSDRKRELEHRLSATLEENDLLQGTVEELQDRVLILERQGHDKDLQLHQSQLELQEVRLSYRQLQGKVEELTEERSLQSSAATSTSLLSEIEQSMEAEELEQEREQLRLQLWEAYCQVRYLCSHLRGNDSADSAVSTDSSMDESSETSSAKDVPAGSLRTALNDLKRLIQSIVDGVEPTVTLLSVEMTALKEERDRLRVTSEDKEPKEQLQKAIRDRDEAIAKKNAVELELAKCKMDMMSLNSQLLDAIQQMLNLSQQLEAWQDDMHRVIDRQLMDTHLKEQSRPAAAAFPRGHGVGRGQEPSTADGKRLFSFFRKI [K512M]: the “effect of a mutation on the interaction” value is “disrupting interaction”.

Variants of B3 are the subject of the next assay. To be noted: with bicl1_mouse Bicdl1, A0JNT9.
For the variant Q72R, the “effect of a mutation on the interaction” value is recorded as “increasing interaction”.

The next assay covers variants of B4. To be noted: with bicd2_mouse Bicd2, Q921C5.
With T27N, the “effect of a mutation on the interaction” value is “disrupting interaction”.

The next assay covers variants of B5. The conditions noted are these: with rab6a_mouse Rab6a.
Target sequence in this assay (P35279 whole entry): as the sequence (P35279 whole entry) above
Consider K785M, for which the “effect of a mutation on the interaction” value is on record as “disrupting interaction”.
